Results: doi:10.1101/2020.11.26.400622 (bioRxiv, 2020)

B1: circularly permuted human Taspase1 cp-Taspase1_(α41-183/β) (enzyme)
chain: TVGAVVVDHEGNVAAAVSSGGLALKHPGRVGQAALYGCGCWAENTGAHNPYSTAVSTSGCGEHLVRTILARECSHALQAEDAHQALLETMQNKFISSPFLASEDGVLGGVIVLRSCRCSAEPDSSQNKQTLLVEFLWSHTTESMCVGYMSAQDGKAKTHISRLPPGAVAGQSVAIEGGVCRLEGSGSGGFVLVHAGAGYHSESKAKEYKHVCKRACQKAIEKLQAGALATDAVTAALVELEDSPFTNAGMGSNLNLLGEIECDASIMDGKSLNFGAVGALSGIKNPVSVANRLLCEGQKGKLSAGRIPPCFLVGEGAYRWAVDHGIPSCP
B2: circularly permuted human Taspase1 cp-Taspase1_(α41-233/β) (enzyme)
chain: TVGAVVVDHEGNVAAAVSSGGLALKHPGRVGQAALYGCGCWAENTGAHNPYSTAVSTSGCGEHLVRTILARECSHALQAEDAHQALLETMQNKFISSPFLASEDGVLGGVIVLRSCRCSAEPDSSQNKQTLLVEFLWSHTTESMCVGYMSAQDGKAKTHISRLPPGAVAGQSVAIEGGVCRLEGSGSGGFVLVHAGAGYHSESKAKEYKHVCKRACQKAIEKLQAGALATDAVTAALVELEDSPFTNAGMGSNLNLLGEIECDASIMDGKSLNFGAVGALSGIKNPVSVANRLLCEGQKGKLSAGRIPPCFLVGEGAYRWAVDHGIPSCPPNIMTTRFSLAAFKRNKRKLELAERVDTDFMQLKKRRQSSEKENDSGTLD

Key:
crystal structure = target: the molecule itself; assay: crystal structure
[1] = target: the molecule itself; assay: negative staining electron microscopy
dynamic light scattering [2] = target: the molecule itself; assay: dynamic light scattering
dynamic light scattering [3] = target: the molecule itself; assay: dynamic light scattering; remark: listed apart in the source

| Protein | binding result (crystal structure) | stoichiometry N [1] | stoichiometry N (dynamic light scattering [2]) | stoichiometry N (dynamic light scattering [3]) |
| --- | --- | --- | --- | --- |
| B1 | binds |  |  |  |
| B2 |  | 2 | 6 | 4 |
